Source: PMC9169922
Read-outs that look alike come from different tables or passages of the source.

B1: A-C mismatch template:primer (dsDNA)
DNA 1: AATACATAAACGCTCCAGGCAAT
DNA 2: GCCTGGAGCGC
modifications: primer 3'-terminal dideoxycytidine
B2: G-C template:primer (matched) (dsDNA)
DNA 1: AATACATAAGCGCTCCAGGCAAT
DNA 2: GCCTGGAGCGC
modifications: primer 3'-terminal dideoxycytidine
B3: T-C mismatch DNA template:RNA primer (crystal) (DNA:RNA)
DNA: ATAGTCGCTCCAGGC
RNA: GCCUGGAGCGC
modifications: RNA primer with 3'-terminal dideoxycytidine
B4: C-C mismatch template:primer (dsDNA)
DNA 1: AATACATAACCGCTCCAGGCAAT
DNA 2: GCCTGGAGCGC
modifications: primer 3'-terminal dideoxycytidine
B5: T-C mismatch template:primer (dsDNA)
DNA 1: AATACATAATCGCTCCAGGCAAT
DNA 2: GCCTGGAGCGC
modifications: primer 3'-terminal dideoxycytidine

What was measured:
[1] = biological target: T1, DNA polymerase alpha catalytic domain (PolαCD) (human, UniProt P09884 338-1250); assay: BLI
[2] = biological target: T1, DNA polymerase alpha catalytic domain …; assay: BLI; remark: listed apart in the source
[3] = biological target: T1, DNA polymerase alpha catalytic domain …; assay: BLI; remark: listed apart in the source
[4] = biological target: T1, DNA polymerase alpha catalytic domain …; assay: BLI; remark: listed apart in the source
[5] = biological target: T1, DNA polymerase alpha catalytic domain …; assay: BLI; remark: listed apart in the source
[6] = biological target: T1, DNA polymerase alpha catalytic domain …; assay: crystal structure

T1 sequence (P09884 338-1250): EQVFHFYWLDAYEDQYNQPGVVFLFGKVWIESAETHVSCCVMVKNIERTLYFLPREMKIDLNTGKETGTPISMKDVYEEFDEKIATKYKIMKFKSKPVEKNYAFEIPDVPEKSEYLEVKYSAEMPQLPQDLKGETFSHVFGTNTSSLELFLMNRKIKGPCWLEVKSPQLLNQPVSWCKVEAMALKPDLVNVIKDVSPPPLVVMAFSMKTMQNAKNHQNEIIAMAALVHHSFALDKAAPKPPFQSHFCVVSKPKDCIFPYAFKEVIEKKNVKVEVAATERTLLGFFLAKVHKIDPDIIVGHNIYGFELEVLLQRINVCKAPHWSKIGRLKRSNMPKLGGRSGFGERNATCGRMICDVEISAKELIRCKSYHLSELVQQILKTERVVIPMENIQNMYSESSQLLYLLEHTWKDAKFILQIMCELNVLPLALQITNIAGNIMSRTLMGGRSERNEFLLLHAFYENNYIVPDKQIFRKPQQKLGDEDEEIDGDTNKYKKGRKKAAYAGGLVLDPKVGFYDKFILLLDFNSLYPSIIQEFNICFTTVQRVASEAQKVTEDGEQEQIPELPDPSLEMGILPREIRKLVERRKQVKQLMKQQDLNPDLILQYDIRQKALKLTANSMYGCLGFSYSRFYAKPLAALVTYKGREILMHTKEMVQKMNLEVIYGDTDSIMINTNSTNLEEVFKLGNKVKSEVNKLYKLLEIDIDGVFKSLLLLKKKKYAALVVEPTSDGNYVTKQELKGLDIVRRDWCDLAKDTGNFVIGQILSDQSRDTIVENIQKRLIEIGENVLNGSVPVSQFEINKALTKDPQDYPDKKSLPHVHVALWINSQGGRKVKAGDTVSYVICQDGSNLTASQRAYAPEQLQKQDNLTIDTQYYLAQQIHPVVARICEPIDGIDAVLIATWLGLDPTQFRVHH

| Binder | Kd [1] [nM] | Kd [2] [nM] | Kd [3] [nM] | Kd [4] [nM] | Kd [5] [nM] | binding result [6] |
| --- | --- | --- | --- | --- | --- | --- |
| B1 | 12.6 ± 1.3 | 987 ± 18 | – | – | – | – |
| B2 | 40.8 ± 1.6 | 1400 ± 130 | 1200 | 30.2 ± 1.3 | 168 ± 17 | – |
| B3 | – | – | – | – | – | binds |
| B4 | 11.7 ± 0.42 | 646 ± 11 | – | – | – | – |
| B5 | 14.2 ± 0.13 | 462 ± 43 | – | – | – | – |
